Earlier results, collected in patent publication US20020019334A1, “Nutritional intervention composition for enhancing and extending satiety” (priority 2000, published 2002).

Conditions: injection, humans

B1: Cholecystokinin (peptide, UniProt P06307 21-115, looked up)
Cholecystokinin: QPVPPADPAGSGLQRAEEAPRRQLRVSQRTDGESRAHLGALLARYIQQARKAPSGRMSIVKNLQNLDPSHRISDRDYMGWMDFGRRSAEEYEYPS
modifications: Cholecystokinin
decrease of food intake: 16%
